Results as given in the DeepSol protein solubility set.

Assay: soluble on expression in E. coli; label from the status in PepcDB or PDB records

Sequence | soluble on expression in E. coli
MSTTKAFKMTYTNAGNKKTEQVIQATEPLTILLMGVDTGGEGRGTSDSWNGNSDSQILMTLNPKTHTTTMVSIERDTMTNILDADGNIVSKQKMNAAYPLGYNSGSSSDGLKNAVSYAMKTISAQTGINIDSFVTVNFDGLVNMVDNVGGIDINNTTGQTLYISDTEPQYTAKVPPGKQHINGDQALVYTRDRHHLSNGDYGRAAHQREVIAALMKKILALDNITRYEQFLNEASKDFRTNIPINASTITSLLGYKDCFNKVVSIQYEGVGEMVDGASYQFMPTDIYLAMQNIMKKSLDESTVTTLPSSLITYESVFGSGTAPFYYLPSATVTEKGKSTVTYGVDTQGNLVSLNSKNSGNYVSTSGGSVQSDSSSGSSSSSSDSTATSSSDSTYQQDNTYNDGYNNSNDSTTSSYGTDDTNTGNYGYGTSQLEHHHHHH | soluble
MSVDLAHIRQVRAEADCLFNNDEVEAAIGRVAEAINRDLGETNPVVFCVMNGGLIFSGKLLPLLDFPLELSYLHATRYRNETSGGELFWKAKPEISFIDRDVLIIDDILDEGHTLSAIIDFCKHAGARAVHTAVLVDKEHERKARPDLKASFTGLYCADRYVFGYGMDYKGYWRNAAGIFAVKGL | not soluble
MSVEEVSKKFEENVSVDDTTATPKTVLSDSAHFDVKHPLNTKWTLWYTKPAVDKSESWSDLLRPVTSFQTVEEFWAIIQNIPEPHELPLKSDYHVFRNDVRPEWEDEANAKGGKWSFQLCGKGADIDELWLCTLLAVIGETIDEDDSQINGVVLSIRKGGNKFALWTKCEDKEPLLRIGGKFKQVLKLTDDGHLEFFPHCSANGRHPQPSITL | soluble
MSVIDANALDTAAFVARYRALFEHSPWVVERAARRRPFDDVFGGLMQVVYDASPDDQLALIRAHPELAGKAAIDRTLTAASAAEQASAGLDRLDEDEFHRFHALNHAYRQRFGFPFVICVRLQDKAGILAELQRRLDAPRNDEIATALAEIGKIVHLRLEALPLEHHHHHH | soluble
MSVIKLKSKLKYCHYAYDDEGYVIHMLTSNERTFFTNAYIIETKNSIVVVDTLMVNSDAILLRQYMDNINKPLIAVIITHGHPDHYNGTEIITGFKEVPIISTKGIRDCIQDTVDSKEVKWKPYFGQDWPEHKILPNQLVIDSEVVNLDGLDYSFRDLGAAESSSDLFFTLGEKRSVIFVGDVVFNNMHGFMNDGNSAQWLKVLQKLLTEIADVKLLFTGHGDPGDTHQLVQRQIDYISHYRSNLLAIIRGNQLEHHHHHH | not soluble
MSVINCEEVKRDEFHTEKYYESYNIFGAHIVTEDEMRGVRFTVWAPHAKAMSVVGDFNEWDYEQHKMLQVTEEGIWSLFIPHIEEREIYKYAIETMAGDVIFKADPYAVYAEVRPNTASVVFDIKGYEWNDKNWSRKKKKKSVYKEAMTVYELHFGSWKKKEDGTLYSYREMAEELIPYVVEHQFTHIEIMPLVEHPYDRSWGYQGTGYYAATSRFGTPHDLMHFVDECHKYGIGVILDWVPGHFCKDAHGLYLFDGTPTYEYKDKDVQENPVWGTVNFDLGKREVRNFLISNALFWMRYFHIDGFRVDAVANMLYWNKEGQEQSNEHAVSFLRELNEAVFAEDEDFLMTAEDSTAWPLVTAPTYEGGLGFNYKWNMGWMNDVLKYMECAPEYRKYIHDKMTFSLLYAYSENFILPLSHDEVVHGKKSLLNKMPGDYWDKFAQLRLLYGYFFTHPGKKLLFMGGEFGQFDEWKDLEDLDWNLHDFEMHRYMHDYFKELIALYKRSKPLWQLDHSREGFQWIDANNNEQSIFSFIRQGDKQEDALVVVCNFTKATYENYKVGVPDFEYYNEVLNSDAEQYGGSGQVNKKRLKTFQEPYHNQTAHVEITIPPFGVSILRPVKTRKGSKKQDGSKTKVRSNVTSRGKR | not soluble
MSVKLRLPQSAYPIFDRIEEMAWARHYQQIVREEKETELADDLEKGLPQHLFESLCIDHLQRHGANKQAISHAFDDDVEFQERMAEHIRYMAETIAHHQVDIDLEDLEHHHHHH | not soluble
MSVNALYDYKFEPKDKVENFHGMQLLYVYWPDHLLFCAPFALLVQPGMTFSALVDEILKPATAAHPDSAKADFLNAEWLLNDEPFTPKADASLKEQGIDHKSMLTVTTPGLKGMANAGY | soluble
MSVTEHKKQAPKEVRCKIVTISDTRTEETDKSGQLLHELLKEAGHKVTSYEIVKDDKESIQQAVLAGYHKEDVDVVLTNGGTGITKRDVTIEAVSALLDKEIVGFGELFRMISYLEDIGSSAMLSRAIGGTIGRKVVFSMPGSSGAVRLAMNKLILPELGHITFELHRQ | soluble
MSWEGFKKAINRAGHSVIIKNVDKTIDKEYDMEERRYKVLQRAGEALQKEAKGFLDSLRAVTASQTTIAEVISNLYDDSKYVAGGGYNVGNYYLQCVQDFDSETVKQLDGPLRETVLDPITKFSTYFKEIEEAIKKRDHKKQDFDAAKAKVRRLVDKPAKDASKLPRAEKELSLAKDIFENLNNQLKTELPQLVSLRVPYFDPSFEALIKIQLRFCTDGYTRLAQIQQYLDQQSRDDYANGLLDTKIEELLGQMTSLDICALGIK | not soluble
MSWIPFKIGQPKKQIVSKTVERDFEREYGKLQQLEEQTKRLQKDMKKSTDADLAMSKSAVKISLDLLSNPLCEQDQDFLRMVTALDTAMKRMDAFNQEKVNQIQKTVIEPLKKFGSIFPSLNMAVKRREQALQDYGRLQAKVEKYEEKEKTGPVLAKLHQAREELRPVREDFEAKNKQLLDEMPRFYNSRLDYFQPSFESLIRAQVIYYSEMHKIFGDLTQQLDQPGHSDEHRERENETKLSELRALSIVADD | not soluble
MSWTVDIPKEALPDLPPLPDGLQQQFENVIARDAKQQPSWDKATAETVRKILESVPPIVVAPEVRELKQHLADVANGRAFLLQGGDCAETFESNTEPHIRANIKTLLQMAVVLTYGASTPVVKMARIAGQYAKPRSSDLDANGLPNYRGDIVNGVEATEEARRHDPARMIRAYANSSAASNLVRALTSSGTADLHRLTGWNREFVASSPAGARYEALAQEIERGLRFMSACGVNDHTLHSADIFCSHEALVVDYERAMLRLAEDEEGNVELYDLSAHQLWIGERTRGLDDFHVNFAAMIANPIGIKIGPTATPEEVVAYANKLDPNFVPGRLTIVARMGHDKVRDVLPGIVKAVEESGHKVIWQSDPMHGNTFTSSNGYKTRHFDKVIDEVQGFFEVHRALGTHPGGIHIEFTGENVTECLGGAEDITDVDLPGRYESACDPRLNTQQSLELSFLVAEMLRN | not soluble
MSWVQLAGHTGSFKAAGTSGLILKRCSEPERYCLARLMADALRGCVPAFHGVVERDGESYLQLQDLLDGFDGPCVLDCKMGVRTYLEEELTKARERPKLRKDMYKKMLAVDPEAPTEEEHAQRAVTKPRYMQWREGISSSTTLGFRIEGIKKADGSCSTDFKTTRSREQVLRVFEEFVQGDEEVLRRYLNRLQQIRDTLEVSEFFRRHEVIGSSLLFVHDHCHRAGVWLIDFGKTTPLPDGQILDHRRPWEEGNREDGYLLGLDNLIGILASLAER | soluble
MSYNSIRLPQDLPIYYKNFFPVKPFTKWLCYGQNYGDYFNRREFTFILADDVHIRYRSYNDEHSFVKALSSTNPEKLDIGAVYNHEPINNKRYTDYQAVERELVFDIDLTDYDPVRNCCKDATVCPKCWKFMVLAVRILDFQLEEMFNFKARMWVFSGRRGVHCWVGDKKARMLNNNQRSAIATRLNLFKKNGQCEVTEGRAKLTRVPPTVRDAFNVALKDGVFEKMIYEQGWLDNDRFIIDYQYMSEFGRDDLRRISESFKTPQERWHMLRGLFDNDYRKTLSQNDGLLDFVNNARSRPKKVLLYFVLQRCYPRLDANVTTGTNHLLKSPFCIHPKTGNVAVPLNVEKIGEFDVSKCPRIDHVVEELSSLLTERGNDGDEDSKNRKFLAYKHGALSPYVENFEMFVSACIS | not soluble
MSYSPSLKEIIAILQKYTSKNYQSNCKTRPDGKLELSLNGVFEEIVKTPGKTRYVTHKQLDQKLKDFKQDLMVELHDTFATKTDLKESEARINQKLEALIQIVMVQGEQIKVHGEQINKLTQAVEKQGEKIEAQGQQIQKVNETLNFVVESLGSIHKRLDSMEGRLDSMENRLDKLESK | soluble
MSYSWKKILIKPESTVVDALRVIDNEALRIALVVNDEQQLLGVVTDGDIRRGLLNNLPLETPVVDIMSRSPITASVNTAKEQLVKLMESKSILAVPLMEENKVVGLETLHHLFEEKTYHNPVFIMAGGFGTRLRPLTDTCPKPMLKIGNKPILETVIRSFIKAGFVNFYISTHYMPEQIQNHFGDGSELGVKISYVHEDSPLGTGGALGLLPDDLPQDLPLIMMNGDVLTKVDFERLLDFHTENQADATMCVREYDYQIPYGVINGKGNKITSMVEKPIQRFFVNAGIYVVSPSVIQSVPKNHHIDMPTLLEQHMNERDNILMFPIHEYWLDIGRMDDFNRAQADIHTLGLDLEHHHHHH | not soluble
MSYTKEQLMLAFSYMSYYGITHTGSAKKNAELILKKMKEALKTWKPFQEDDWEVVWGPAVYTMPFTIFNDAMMYVIQKKGAEGEYVIAIRGTNPVSISDWLFNDFMVSAMKKWPYASVEGRILKISESTSYGLKTLQKLKPKSHIPGENKTILQFLNEKIGPEGKAKICVTGHSKGGALSSTLALWLKDIQGVKLSQNIDISTIPFAGPTAGNADFADYFDDCLGDQCTRIANSLDIVPYAWNTNSLKKLKSIYISEQASVKPLLYQRALIRAMIAETKGKKYKQIKAETPPLEGNINPILIEYLVQAAYQHVVGYPELMGMMDDIPLTDIFEDAIAGLLHHHHHH | soluble
MTAALHIGHLSKSFQNTPVLNDISLSLDPGEILFIIGASGCGKTTLLRCLAGFEQPDSGEISLSGKTIFSKNTNLPVRERRLGYLVQEGVLFPHLTVYRNIAYGLGNGKGRTAQERQRIEAMLELTGISELAGRYPHELSGGQQQRAALARALAPDPELILLDEPFSALDEQLRRQIREDMIAALRANGKSAVFVSHDREEALQYADRIAVMKQGRILQTASPHELYRQPADLDAALFIGEGIVFPAALNADGTADCRLGRLPVQSGAPAGTRGTLLIRPEQYSLHPHSAPAASIHAVVLKTTPKARHTEISLRAGQTVLTLNLPSAPTLSDGISAVLHLDGPALFFPGNTLEHHHHHH | soluble
MTAKTEDNLKEYTRSQVEQHCTHDDLWLLFRDKVYNMTPYFNQHPGGLAILRYAGKDVTTVLPFVVSHGIAWKIVEQKLQEHLIGKLKE | not soluble
MTALTWTDERVEQLKKLWEGGLSASQIAAELGNVTRNAVIGKVHRLGLSGRAKSPTSAAPRPRKARPVQQMMRVTRPVARGNTALAHAFEVEAEPDPIAFDNVVPMNQRLSLLELNEATCHWPVGDPSSPEFFFCGGKSLPGLPYCAHHSRIAYQPVGDRRRAAPKTTRLEHHHHHH | soluble
MTAMDHQFPSWIVVNESTSISREQLNYLLETYNVFYENQKNLHILYGQTEDGQLIVEGMLDIFWGVKRPIQLKIQDEKQISSFDLLNTPETFSSKGRMTRWGEFDDLYRISELDRTHVLASEARHSPEDYLSYHSTLTPYADEEPESPLLYRTMSEAESPLLYRTMSEAALVRKRMRAPEMYRKDRMGVLSNHRASINGHVYDHETSIFTPTFGSETKVRANSIMRTEEVIKQLLQKFKIENSPRDFALYIIFGTGEQRKLKKTDVPLLQRLLQGPSKSNARIFLMDKDAEEISRDVAPYINFHFSFLESILQRLDEEEKMEIERIMAKFNTERAFILKCLQSKQAAKTETTV | soluble
MTATQITGVVLAAGRSNRLGTPKQLLPYRDTTVLGATLDVARQAGFDQLILTLGGAASAVRAAMALDGTDVVVVEDVERGCAASLRVALARVHPRATGIVLMLGDQPQVAPATLRRIIDVGPATEIMVCRYADGVGHPFWFSRTVFGELARLHGDKGVWKLVHSGRHPVRELAVDGCVPLDVDTWDDYRRLLESVPS | not soluble
